Biological target: T1, human BTLA (B and T lymphocyte attenuator), BTLA isoform 1 precursor (Homo sapiens) (human, UniProt Q7Z6A9 31-289)
T1 construct: BTLA was presented on CD3+ T cells of PBMC, on COS cells transfected with human BTLA in p3xFlag-myc-CMV25 (this construct may carry tags; not described), and on L-BTLA fibroblasts stably transfected with human BTLA; also called CD272
Test: flow cytometry on CD3+ T cells among PBMC, 0.01-10 ug/ml
Experimental: T cells (CD3+) among PBMC were stained for BTLA with the anti BTLA mAbs at various concentration (from 0.01 μg/ml to 10μ,g/ml). […] Then COS transfected with human BTLA were incubated with the anti BTLA mAbs and then with HVEM-Fc before staining with an anti human IgG Fc PE. The percentage of inhibition was determined as 100-maximum of percentage of stained cells. […] The median fluorescence intensity of cells was determined. […] On the other hand, 7.1 and 8.2 antibodies were not able to compete against 4C7 mAb at a high dose (FIG. 3). […] Finally, γδT were obtained after a positive sorting of fresh purified PBMC and stained for Cell Trace Violet to follow the proliferation. Cells were incubated 5 days in IL2/Zometa with the different mAbs prior to analysis by flow cytometry. The addition of antibodies in the culture of the γδT lead to an upregulation of their proliferation. Cells incubated with the HVEM 18.10 mAb disclosed in WO2014184360 is able to proliferate more than cells incubated with the mock control (IgG1) (FIG. 4).

binding result: binds
B1: 629.3 mAb (antibody, V domains shown)
VH: QVQLRESGPGLVAPSQSLSITCTVSGFSLNTYGVSWVRQPPGKGLEWLGVVWGDGNTNYHSVVISRLTINKDNSKSQVFLKLNSLQTDDTATYYCAKCYGSRFDYAMDYWGQGTSVTVSS
VL: DIVMSQSPSSLAVSIGEQVTMSCKSSQSLLSSRTRKNYLAWYQQRPGQSPKLLIYWASTRESGVPDRFTGSGSGTDFTLTISSVQAEDLAVYYCKQSYNLPTFGGGTRLEIK
notes: Mouse monoclonal antibody, detected with anti-mouse IgG
